# Data published in the supplement of paper PMC9732359.
# ± gives the uncertainty stated by the source.
# Experiment: protein stability index of a GFP-peptide fusion (yeast GPS) (PSI 1-4); higher = more stable; sorted into four equal gates, so the index is relative within each strain
# Details: ubr1∆
# Summary of the method: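 Yeast carrying a pooled library were grown to mid-log phase in leucine-free medium. Each library plasmid expresses Cherry and has a tiled 17-residue yeast protein peptide fused downstream of GFP. Cells were sorted into four equal gates by GFP/Cherry ratio, and plasmids from each gate were PCR-amplified, Illumina-sequenced and assigned to strains by barcode. Summing, across gates, the read frequency times the gate number gave each peptide's protein stability index.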
row,Sequence,protein stability index
1,LLVLLQDVIKVLYQSNA [SWP82],1.7 ± 0.054
2,LLVQKRFKYAPGTIVLY [RPS3],1.31 ± 0.039
3,LMLKKLKNSIMSFIFPS [YML031W/NDC1],2.37 ± 0.062
4,LMTKLNSFKLFKAEKLQ [RPC17],1.75 ± 0.04
5,LNARMFLKYYGAHKFLD [SIR2],1.69 ± 0.066
6,LNATTAMDLAQMLIQGV [BRR2],1.55 ± 0.083
7,LNDHIDDFEVNVASLVR [GRR1],3.08 ± 0.087
8,LNEAQGHIVSLELTTGA [SMD3],1.85 ± 0.072
9,LNEITNSKVNKLNIETM [DSN1],3.08 ± 0.051
10,LNGGLQFVPELKEFTAK [FAS2],1.83 ± 0.064
11,LNHVVSLIENKKAKLVL [RPL8B],2.83 ± 0.1
12,LNICRQCFREKANDIGF [RPS29A],2.86 ± 0.11
13,LNIDWSTTGDNGELDLS [MED2],2.28 ± 0.044
14,LNISGEFFRNKLKYHDF [RPL16A],1.12 ± 0.1
15,LNKDSTNEFVGSPSLTS [NUT1],2.9 ± 0.042
16,LNKFKKAIFQFVCRGMA [ECM29],1.92 ± 0.052
17,LNKSDLLDKYGKTGLSN [YML103C/NUP188],3.38 ± 0.075
18,LNNNNNNNNTTTTTTTT [SWI1],3.22 ± 0.054
19,LNSLTNLLSKRNQEKKM [SNM1],2.7 ± 0.063
20,LNTKSIQIDEETENSES [MCD1],2.92 ± 0.1
21,LNYTVINFKSREAIRPG [AAR2],3.17 ± 0.042
22,LPDELTLSYDDISAAIV [DLS1],2.67 ± 0.05
23,LPEKVNFRTMQQQQMQQ [SSN2],2.38 ± 0.14
24,LPFQRLVREIAQDFKTD [HHT1],2.35 ± 0.074
25,LPKAWISLAVEGEPVNS [COR1],1.79 ± 0.1
26,LPKLKATGHRVLIFFQM [SNF2],2.09 ± 0.14

row,Sequence,protein stability index
1,LPLRLQFNEFIQIMANI [PGD1],1.17 ± 0.084
2,LPNEAGRLEIFKIHTAK [RPT4],2.66 ± 0.11
3,LPNLGTPDDDEIDVENH [RPN8],1.42 ± 0.056
4,LPPNWKYESATASALVN [RPS13],2.12 ± 0.049
5,LPPPEDVAFLKTAYSIY [RPN1],2.47 ± 0.053
6,LPSEERIQKIISKRKEE [YIL149C/MLP2],1.65 ± 0.055
7,LPSSNGSSRIIASDGSE [RRP42],2.74 ± 0.085
8,LQDEVMNIKPVQKQTRA [RPS2],3.63 ± 0.19
9,LQEKFLNQIATLKIHLK [IRR1],1.03 ± 0.093
10,LQKEKELHKEGTISKLE [SMC2],2.5 ± 0.05
11,LQLIIFLRTQFLKLYVL [RGR1],1.41 ± 0.091
12,LQNCCIIDVGTHHTDII [ARP9],2.28 ± 0.066
13,LQQAKLRESEISQKLTN [SMC3],2.97 ± 0.069
14,LQQGMRGAWGKPHGLAA [RPL10],2.52 ± 0.069
15,LQSISSLTISLYASDYA [RPN7],1.95 ± 0.027
16,LQSIVNEISRNGTMINE [PCI8],2.9 ± 0.12
17,LQVADKFFRVKYENKIS [SMC3],1.52 ± 0.03
18,LQYLPLYAVSTFENTNN [SIR4],2.31 ± 0.046
19,LRACAANVDQISFLEPI [YMR129W/POM152],2.97 ± 0.046
20,LRDTFIELDQVLNMLYW [RPO21],2.27 ± 0.06
21,LRLFINEEGDWSCIVVE [ITC1],3.19 ± 0.1
22,LRNWEELNIIPRDLLRV [PRP28],1.07 ± 0.048
23,LRQLASYYSREQDALFI [RPN1],1.81 ± 0.042
24,LRRRTASHNVRRIPKRM [POP1],2.75 ± 0.042
25,LRSKTSAGRIESNNPSH [SIR4],2.79 ± 0.098
26,LRSTENGIVDQVLVTTN [RPB2],1.82 ± 0.055
